PMC7253899 (Saudi Journal of Biological Sciences, 2020)

Biological target: the molecule itself
Experiment: SEC-MALS

B1: TRAIP Leucine zipper domain (198-280 a.a) (domain or fragment, human, UniProt Q9BWF2 198-280, looked up)
chain: AVYCVSLKKEYENLKEARKASGEVADKLRKDLFSSRSKLQTVYSELDQAKLELKSAQKDLQSADKEIMSLKKKLTMLQETLNL
In the case of B1, the “stoichiometry N” value is reported as 3.
